The record followed here is patent US20220380486A1 (COMMISSARIAT A L ENERGIE ATOMIQUE ET AUX ENERGIES …, published 2022).

This data set deals with the molecule itself. In words: self-assembly (homo-oligomerisation) by crystallisation on a substrate.

B1: Mutant of the C-terminal part and the histidine tag, SEQ ID NO: 18 (C-terminal part removed, histidine tag modified) (other)
chain: MHHHHHHGAMARKELSSLEELFRHYGVRYMTLTKMVEMGFTVNTLVNMTEQELDDVIRTLVDIYRVDLLVGEKYGIKSAVRAEKRR
For the protein B1, the binding result is given as “binds”.

B2: Mutant with a self-reducing sequence at the C-terminal part, SEQ ID NO: 29 (C-terminal part and histidine tag modified) (other)
chain: MKHHHHHHPGAMARKELSSLEELFRHYGVRYMTLTKMVEMGFTVNTLVNMTEQELDDVIRTLVDIYRVDLLVGEKYGIKSAVRAEKRRLDELERKKGGSTGTSVLIATPGV
As to B2, the binding result was “binds”.

B3: Mutant with a self-reducing sequence at the C-terminal part, SEQ ID NO: 31 (C-terminal part and histidine tag modified) (other)
chain: MKHHHHHHPGAMARKELSSLEELFRHYGVRYMTLTKMVEMGFTVNTLVNMTEQELDDVIRTLVDIYRVDLLVGEKYGIKSAVRAEKRRLDELERKKGGSWAGAKRLVLRRE
On to B3, for which the binding result is recorded as “binds”.

B4: Mutant of the C-terminal part and histidine tag, SEQ ID NO: 26 (other)
chain: MHHHHHHGAMARKELSSLEELFRHYGVRYMTLTKMVEMGFTVNTLVNMTEQELDDVIRTLVDIYRVDLLVGEKYGIKSAVRAEKRRLDELERKKGGSC
On to B4, for which the binding result is listed as “binds”.

B5: Mutant of the C-terminal part and histidine tag, SEQ ID NO: 27 (other)
chain: MHHHHHHGAMARKELSSLEELFRHYGVRYMTLTKMVEMGFTVNTLVNMTEQELDDVIRTLVDIYRVDLLVGEKYGIKSAVRAEKRRLDELERKKGGSHHHHHH
B5: the binding result is “binds”.
